In US7612163B1, “Prokineticin 2β peptide and its use” (Janssen Pharmaceutica N.V., priority 2004, dated 2009):
Ends that are not written are not given here.

Columns and labels:
[1] = target: T1, human prokineticin receptor 2 (PKR2) (human, UniProt Q8NFJ6 1-384); assay: radioligand competition against 100 pM 125I-PK2-f on COS-7 cells expressing PKR2
T1 construct: whole, on cells
Protocol: (§1) Radio-Ligand Binding Assays. PKR1 and PKR2 in the expression vector pCIneo (Promega) were transfected into COS-7 cells using LipofectAmine (Invitrogen). Two days after transfection, cells were detached from the culture dishes by 10 mM EDTA in PBS, washed with Dulbecco's Modified Eagle's Medium (DMEM) and seeded in 96-well opaque polylysine-coated plates (BD Biosciences, San Jose, Calif.) at a density of 50,000 cells per well. […] The binding assays were performed in DMEM plus 50 mM HEPES, pH 7.2 and 1% bovine serum albumin in a final volume of 100 µl. The binding assays were carried out at room temperature for 1 hour. After the plates were washed three times with ice cold PBS, Microscint-40 (Packard, Meriden, Conn.) was added and the plates were counted on a Topcount (Packard).
(§2) Different concentrations of PK1, PK2 or PK2β were added to the assays as the competitors. All assays were performed in triplicates. The results are mean values (±S.E.M) of triplicates. Figure 4B:
(§3) Prokineticins bind PKR1 and PKR2 with different affinities. With the purified PK2β available, it was investigated whether PK2β binds PKR1 or PKR2 in comparison with PK1 and PK2. […] Membranes from COS-7 cells transiently expressing PKR1 and PKR2 were used in competition binding assays. The results (FIG. 4A) indicate that PK1, PK2, and PK2β all bind PKR1 with high affinities, with the rank order of potency PK2>PK2β≅PK1.

[2] = target: T2, human prokineticin receptor 1 (PKR1) (human, UniProt Q8TCW9 1-393); assay: radioligand competition against 100 pM 125I-PK2-f on COS-7 cells expressing PKR1
T2 construct: whole, on cells
T2 sequence (Q8TCW9 whole entry): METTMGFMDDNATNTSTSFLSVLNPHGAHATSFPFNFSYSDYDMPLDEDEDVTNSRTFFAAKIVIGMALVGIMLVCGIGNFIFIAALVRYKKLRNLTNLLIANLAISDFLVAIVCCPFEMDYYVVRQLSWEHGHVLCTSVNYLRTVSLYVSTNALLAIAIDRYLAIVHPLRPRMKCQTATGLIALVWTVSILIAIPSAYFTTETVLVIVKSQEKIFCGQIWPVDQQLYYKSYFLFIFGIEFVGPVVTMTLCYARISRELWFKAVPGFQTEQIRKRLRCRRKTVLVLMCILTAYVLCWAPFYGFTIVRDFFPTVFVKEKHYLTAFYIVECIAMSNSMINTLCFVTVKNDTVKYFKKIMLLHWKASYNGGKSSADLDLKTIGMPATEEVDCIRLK
Protocol: as §1, §2, §3

[3] = target: T2, human prokineticin receptor 1 (PKR1); assay: cell-based or functional assay
[4] = target: T1, human prokineticin receptor 2 (PKR2); assay: cell-based or functional assay
[5] = target: T2, human prokineticin receptor 1 (PKR1); assay: cell-based or functional assay; remark: listed apart in the source
[6] = target: T1, human prokineticin receptor 2 (PKR2); assay: cell-based or functional assay; remark: listed apart in the source
PKR2 [7] = target: T3, PKR2 (Homo sapiens, UniProt Q8NFJ6); assay: Radioligand competition binding assay (125I-PK2-f), PKR2 expressing COS-7 cells; design: The full-length cDNA coding regions for both PKR1 and PKR2 were PCR-amplified from human fetal brain cDNA; expressed in transfected cells; host or cells: COS-7 (transient, pCIneo); details: FIG. 4B
T3 sequence (Q8NFJ6 whole entry): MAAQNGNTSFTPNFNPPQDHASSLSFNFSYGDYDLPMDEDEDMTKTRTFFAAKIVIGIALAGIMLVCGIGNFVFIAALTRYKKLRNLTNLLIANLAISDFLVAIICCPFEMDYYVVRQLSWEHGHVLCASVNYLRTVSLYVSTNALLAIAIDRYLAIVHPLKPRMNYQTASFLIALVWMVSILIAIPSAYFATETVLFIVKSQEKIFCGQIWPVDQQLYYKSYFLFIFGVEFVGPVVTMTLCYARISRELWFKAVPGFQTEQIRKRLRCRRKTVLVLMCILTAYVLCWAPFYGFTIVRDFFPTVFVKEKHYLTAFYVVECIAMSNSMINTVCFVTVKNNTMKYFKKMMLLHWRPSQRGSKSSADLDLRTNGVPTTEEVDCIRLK
Protocol: (§4) FIGS. 4A and 4B graphically illustrate that PKs bind the PKR1 and PKR2 with different affinities. COS-7 cells transiently expressing PKR1 or PKR2 were seeded to 96-well plates. ^125I-labeled PK2-f was added to each well at a final concentration of 100 pM. Different concentrations of PK1, PK2 or PK2β were added to the assays as the competitors. All assays were performed in triplicates. The results are mean values (±S.E.M) of triplicates. FIG. 4A provides the results of the binding assay using PKR1 expressing cells.
(§5) Expression, purification, and iodination of C-terminal FLAG-tagged PK2. C-terminal FLAG-tagged PK2 (PK2-f) was constructed as described (Soga et al., 2002). Two primers P9: ATCGAGAATTCGCCACCATGAGGAGCCTGTGCTGCGCCC (SEQ.ID.NO.:11) and P10: GGATCCCTACTTATCGTCGTCATCCTTATAATCCTTTTGGGCTAAACA (SEQ.ID.NO.:12) were used to amplify human whole brain cDNA (Clontech). The PCR-amplified PK2-f was cloned into a mammalian expression vector pCMV-sport1 (Invitrogen). The resulting clones were sequenced to confirm the identities and transfected into COS-7 cells using LipofectAmine (Invitrogen). Three days after transfection, the cell culture supernatant was collected and run through an ANTI-FLAG M2 agarose (Sigma) affinity column. The column was washed with PBS and eluted with […] Glycine HCl, pH 3.0. The eluted protein fraction was immediately neutralized with 1 M Tris-HCl, pH 8.0 and then further purified by reverse-phase HPLC using a C4 column (Vydac). The purified recombinant PK2-f protein was iodinated using Iodogen reagent (Pierce, Rockford, Ill.) and ^125I-NaI (PerkinElmer, Boston, Mass.) as described by Pierce. The iodinated PK2-f was purified by a G-50 (Amersham Pharmacia Biotech) gel filtration column.
(§6) Radio-Ligand Binding Assays. PKR1 and PKR2 in the expression vector pCIneo (Promega) were transfected into COS-7 cells using LipofectAmine (Invitrogen). […] After the plates were washed three times with ice cold PBS, Microscint-40 (Packard, Meriden, Conn.) was added and the plates were counted on a Topcount (Packard).

PKR1 = PKR1 (Homo sapiens, UniProt Q8TCW9); assay: Radioligand competition binding assay (125I-PK2-f), PKR1 expressing COS-7 cells; design: The full-length cDNA coding regions for both PKR1 and PKR2 were PCR-amplified from human fetal brain cDNA; expressed in transfected cells; host or cells: COS-7 (transient, pCIneo); details: FIG. 4A
Sequence of PKR1 (Q8TCW9 whole entry): as the sequence (Q8TCW9 whole entry) above
Protocol: as §4, §5, §6

PKR2 [8] = target: T3, PKR2; assay: cAMP accumulation (cAMP [125I] FlashPlate) in HEK 293 cells co-expressing PKR2/Gs; assay type: cell-based; design: The full-length cDNA coding regions for both PKR1 and PKR2 were PCR-amplified from human fetal brain cDNA; expressed in transfected cells; host or cells: HEK293 (transient, pCIneo, co-transfected with Gs plasmid); details: FIG. 8C
Protocol: FIGS. 8B and 8C illustrate results from HEK 293 cells co-expressing PKR1/Gs (FIG. 8B) or PKR2/Gs (FIG. 8C) stimulated with different PKs at various concentrations (the accumulated cAMP was measured by a cAMP [^125I] FlashPlate Assay kit; the results are mean values (±S.E.M) of triplicate experiments (legend: ▪, PK1; ▴, PK2; ▾, PK2β)).
In a different experiment, PKR1 and PKR2 in the expression vector pCIneo (Promega) were co-transfected with the Gs expression plasmid into HEK293 cells using LipofectAmine (Invitrogen). Two days after transfection, cells were detached with 10 mM EDTA in PBS, resuspended in Dulbecco's Modified Eagle's Medium/F12 (DMEM/F12) media, and then plated on 96-well plates at a density of 50,000 cells per well. Two hours after the seeding, cells culture medium was replaced with DMEM/F12 containing 2 mM isobutylmethylxanthine (Sigma) and incubated for 30 min. Different concentrations of PK1, PK2 or PK2β were added to cells and incubated for an additional 30 min in a final volume of 200 μl/well. The reaction was stopped and cAMP was extracted by adding 20 μl of 0.5 N HCl to each well. Cell culture media were tested for cAMP concentrations by the cAMP [^125I] FlashPlate Assay kit (PerkinElmer) as described by the manufacturer.

[9] = target: T1, human prokineticin receptor 2 (PKR2); assay: radioligand binding on PKR2 expressing cells
[10] = target: T2, human prokineticin receptor 1 (PKR1); assay: radioligand binding on PKR1 expressing cells

T1 sequence (Q8NFJ6 whole entry): as the sequence (Q8NFJ6 whole entry) above

B1: human prokineticin 2 (PK2) (ligand)
chain: AVITGACDKDSQCGGGMCCAVSIWVKSIRICTPMGKLGDSCHPLTRKVPFFGRRMHHTCPCLPGLACLRTSFNRFICLAQK
notes: Made in COS-7 cells with an N-terminal FLAG tag that was removed with enterokinase, then HPLC purified; also called mammalian Bv8
IC50 [1]: 6.4 nM
IC50 [2]: 4.5 nM
EC50 for Ca2+ mobilization in PKR expressing HEK 293 cells [3]: 0.8 nM
EC50 for Ca2+ mobilization in PKR expressing HEK 293 cells [4]: 3.6 nM
EC50 for stimulation of cAMP accumulation (β-galactosidase reporter), SK-N-MC cells [5]: 1.27 nM
EC50 for stimulation of cAMP accumulation, HEK 293 cells [5]: 3.17 nM
EC50 for stimulation of cAMP accumulation (β-galactosidase reporter), SK-N-MC cells [6]: 12.1 nM
EC50 for stimulation of cAMP accumulation, HEK 293 cells [6]: 41 nM

B2: prokineticin 2 (protein)
chain: AVITGACDKDSQCGGGMCCAVSIWVKSIRICTPMGKLGDSCHPLTRKVPFFGRRMHHTCPCLPGLACLRTSFNRFICLAQK
notes: recombinant human PK2 peptide expressed in COS-7 cells
Binding to PKR2, in words (PKR2 [7]): high affinity
Binding to PKR1, in words (PKR1): high affinities
cAMP accumulation in PKR2 expressing HEK293 cells, in words (PKR2 [8]): high-potency ligands

B3: 125I-labeled C-terminal FLAG-tagged PK2 (ligand)
chain: AVITGACDKDSQCGGGMCCAVSIWVKSIRICTPMGKLGDSCHPLTRKVPFFGRRMHHTCPCLPGLACLRTSFNRFICLAQK
modifications: 125I on the Tyr in the FLAG-tag
notes: Expressed from human PK2 cDNA with its own signal peptide and secreted by COS-7 cells; also called PK2-f; not shown: C-terminal FLAG tag
binding result [9]: binds
binding result [10]: binds

B4: human prokineticin 1 (PK1) mature peptide (ligand, UniProt P58294 20-105, looked up)
chain: AVITGACERDVQCGAGTCCAISLWLRGLRMCTPLGREGEECHPGSHKVPFFRKRKHHTCPCLPNLLCSRFPDGRYRCSMDLKNINF
notes: mature; also called EG-VEGF
IC50 [1]: 52.2 nM
IC50 [2]: 27.6 nM
EC50 for Ca2+ mobilization in PKR expressing HEK 293 cells [3]: 1.1 nM
EC50 for Ca2+ mobilization in PKR expressing HEK 293 cells [4]: 7.7 nM
EC50 for stimulation of cAMP accumulation (β-galactosidase reporter), SK-N-MC cells [5]: 8.34 nM
EC50 for stimulation of cAMP accumulation, HEK 293 cells [5]: 16.8 nM
EC50 for stimulation of cAMP accumulation (β-galactosidase reporter), SK-N-MC cells [6]: 20 nM
EC50 for stimulation of cAMP accumulation, HEK 293 cells [6]: 60 nM

B5: 125I-labeled human PK1 (ligand, UniProt P58294 20-105, looked up)
chain: AVITGACERDVQCGAGTCCAISLWLRGLRMCTPLGREGEECHPGSHKVPFFRKRKHHTCPCLPNLLCSRFPDGRYRCSMDLKNINF
modifications: 125I at Tyr75
notes: mature; Told of only in the discussion, as an attempted radioligand
binding result [9]: binds
binding result [10]: binds

B6: prokineticin 1 (protein)
chain: AVITGACERDVQCGAGTCCAISLWLRGLRMCTPLGREGEECHPGSHKVPFFRKRKHHTCPCLPNLLCSRFPDGRYRCSMDLKNINF
notes: recombinant human PK1 mature peptide, also known as endocrine gland vascular endothelial growth factor
Binding to PKR2, in words (PKR2 [7]): high affinity
Binding to PKR1, in words (PKR1): high affinities
cAMP accumulation in PKR2 expressing HEK293 cells, in words (PKR2 [8]): high-potency ligands

B7: human PK2β mature peptide (ligand)
chain: AVITGACDKDSQCGGGMCCAVSIWVKSIRICTPMGKLGDSCHPLTRKNNFGNGRQE
modifications: ends and bridges not checked; cysteine pairing not given here
notes: Proteolytically processed form of PK2L secreted by COS-7 cells; The FLAG tag was removed with enterokinase; also called processed product of PK2L
IC50 [2]: 34.6 nM
EC50 for Ca2+ mobilization in PKR expressing HEK 293 cells [3]: 1.5 nM
EC50 for Ca2+ mobilization in PKR expressing HEK 293 cells [4]: 80 nM
EC50 for stimulation of cAMP accumulation, HEK 293 cells [5]: 23.4 nM
EC50 for stimulation of cAMP accumulation, HEK 293 cells [6]: > 1000 nM
